Source: patent US7510708B2, “Disruption of the REG pathway” (Washington University, priority 2003, dated 2009)

Tests used:
[1] = system: colorectal adenocarcinoma cells; test: Survival of colorectal adenocarcinoma cells in response to gamma radiation; assay type: cell-based; settings: nanomolar concentrations, FIGS. 31 and 32
Source text: (§1) Stem cells and their immediate progeny are the only cells in the normal epithelium that are capable of continued proliferation. In this context, epithelial malignancies may reflect a form of disordered stem cell biology. FIGS. 27 and 28 show the effect of exogenous Reg proteins on the survival of intestinal stem cells following 13 Gy radiation. […] We therefore conducted experiments to see if exogenous Reg would promote the survival of colorectal adenocarcinoma cells in response to gamma radiation.

Akt = test: Activation of the Akt pathway by phosphorylation in cancer cell lines; assay type: cell-based; settings: nanomolar concentrations; HCT116, HT29, N87 cells; FIGS. 19 and 20
Source text: One kinase responsible for protection against apoptosis in tumor cells may be Akt/protein kinase B. Akt, also referred to as Rac, regulates the balance between survival and apoptosis by several mechanisms. Akt may regulate the expression of anti-apoptotic proteins. Because of the effect of Reg on the regulation of Bcl-2 (and Bcl-xl, discussed later), we examined the effects of recombinant Reg IV and Reg Iα on the activation of the Akt pathway. […] Activated Akt has known pleiotropic effects (beyond effects on Bcl-2 family gene expression), reducing the amount of apoptosis occurring either at baseline or in response to a known proapoptotic stimulus.

HT29 = test: Caspase activity in HT29 lysates following oxidative stress (hydrogen peroxide); assay type: cell-based; settings: nanomolar concentrations; HT29 lysates after hydrogen peroxide; FIG. 21
HT-29 cells = test: Bcl-xl and Bcl-2 expression after recombinant Reg Iα treatment; assay type: cell-based; settings: FIG. 29 and 30
Protocol: Additional colorectal cell lines were also examined to determine if this was a generalized effect on gastrointestinal cells. […] To determine if the increases in Bcl-2 mRNA also were associated with changes in Bcl-2 protein expression, Western blotting was performed on cell lysates taken at various times following Reg treatment.

intestinal stem cells = test: Survival of intestinal stem cells following 13 Gy radiation; assay type: in vivo, mouse; settings: pretreatment, FIGS. 27 and 28
Protocol: Gamma irradiation is a well-defined pro-apoptotic stimulus and is a commonly applied experimental approach to study intestinal epithelial cell death. […] At 6 hours marked apoptosis is seen in the crypt epithelium. By 24 hours, there is a loss of epithelial proliferation. Regenerating crypts, counted at 84 hours, are reflective of a single surviving stem cell.
as §1

[2] = system: colon cancer cell lines (e.g. HT29, SW480, T84); test: Upregulation of mRNA of other Reg family members in colon cancer cell lines; assay type: cell-based; settings: FIG. 33
Source text: One explanation for this finding could be that a single Reg protein can upregulate expression of other members of the Reg family.

B1: Reg Iα: Recombinant human Reg Iα protein expressed by fermentation in Pichia pastoris (protein)
chain: QEAQTELPQARISCPEGTNAYRSYCYYFNEDRETWVDADLYCQNMNSGNLVSVLTQAEGAFVASLIKESGTDDFNVWIGLHDPKKNRRWHWSSGSLVSYKSWGIGAPSSVNPGYCVSLTSSTGFQKWKDVPCEDKFSFVCKFKN
cell survival from gamma radiation [1]: improved cell survival
activation by phosphorylation of Akt (Akt): rapid activation by phosphorylation of Akt
caspase activity / protection against peroxide-induced apoptosis (HT29): reduced caspase activity
expression of Bcl-xl and Bcl-2 (HT-29 cells): increased expression of Bcl-xl and Bcl-2
stem cell survival (intestinal stem cells): significantly increased stem cell survival
mRNA coding for other members of the Reg gene family [2]: upregulation of mRNA coding for other members of the Reg gene family

B2: Reg III: Recombinant human Reg III (pancreatitis-associated protein) expressed by fermentation in Pichia pastoris (protein)
chain: EEPQRELPSARIRCPKGSKAYGSHCYALFLSPKSWTDADLACQKRPSGNLVSVLSGAEGSFVSSLVKSIGNSYSYVWIGLHDPTQGTEPNGEGWEWSSSDVMNYFAWERNPSTISSPGHCASLSRSTAFLRWKDYNCNVRLPYVCKFTD
mRNA coding for other members of the Reg gene family [2]: upregulation of mRNA coding for other members of the Reg gene family
